Laboratory results from paper PMC9482650, “Quantitative fragmentomics allow affinity mapping of interactomes” (Nature Communications, 2022).

T1: APBA1_1, Q02410
T1 sequence (Q02410 651-752, limits assumed, looked up): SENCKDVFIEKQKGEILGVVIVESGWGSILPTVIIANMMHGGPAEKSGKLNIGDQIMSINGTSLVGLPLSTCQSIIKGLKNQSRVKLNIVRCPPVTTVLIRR

T2: APBA2_1, Q99767
T2 sequence (Q99767 563-664, limits assumed, looked up): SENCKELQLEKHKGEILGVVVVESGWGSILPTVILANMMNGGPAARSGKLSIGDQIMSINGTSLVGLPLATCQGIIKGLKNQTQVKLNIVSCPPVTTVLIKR

T3: APBA2_2, Q99767
T3 sequence (Q99767 654-744, limits assumed, looked up): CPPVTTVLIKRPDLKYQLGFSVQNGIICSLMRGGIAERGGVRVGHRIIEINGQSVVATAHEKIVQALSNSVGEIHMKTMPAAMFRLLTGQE

T4: ARHGEF11, O15085
T4 sequence (O15085 42-136, limits assumed, looked up): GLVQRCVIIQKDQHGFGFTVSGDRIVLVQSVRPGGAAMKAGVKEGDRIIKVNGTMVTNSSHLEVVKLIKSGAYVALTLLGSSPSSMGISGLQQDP

T5: DFNB31_1, Q9P202
T5 sequence (Q9P202 135-233, limits assumed, looked up): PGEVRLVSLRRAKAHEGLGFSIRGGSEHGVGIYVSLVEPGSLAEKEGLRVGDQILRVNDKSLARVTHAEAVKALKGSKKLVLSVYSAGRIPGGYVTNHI

T6: DLG3_3, Q92796
T6 sequence (Q92796 374-475, limits assumed, looked up): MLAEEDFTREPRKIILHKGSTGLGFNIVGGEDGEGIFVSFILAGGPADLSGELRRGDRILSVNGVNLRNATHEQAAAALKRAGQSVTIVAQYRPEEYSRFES

T7: GRIP1_2, Q9Y3R0
T7 sequence (Q9Y3R0 145-248, limits assumed, looked up): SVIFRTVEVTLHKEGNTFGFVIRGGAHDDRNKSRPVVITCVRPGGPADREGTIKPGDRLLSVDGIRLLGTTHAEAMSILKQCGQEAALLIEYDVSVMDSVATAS

T8: GRIP1_5, Q9Y3R0
T8 sequence (Q9Y3R0 568-668, limits assumed, looked up): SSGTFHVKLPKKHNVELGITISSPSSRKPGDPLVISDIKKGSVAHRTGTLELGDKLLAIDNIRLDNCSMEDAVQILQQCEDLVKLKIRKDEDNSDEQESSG

T9: MPDZ_5, O75970
T9 sequence (O75970 695-796, limits assumed, looked up): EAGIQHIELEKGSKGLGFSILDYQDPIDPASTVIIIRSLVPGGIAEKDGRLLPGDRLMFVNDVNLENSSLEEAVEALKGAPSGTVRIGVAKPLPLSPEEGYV

T10: MPP2, Q14168
T10 sequence (Q14168 180-250, limits assumed, looked up): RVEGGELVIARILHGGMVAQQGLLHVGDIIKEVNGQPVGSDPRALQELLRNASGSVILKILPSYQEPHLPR

T11: NHERF3_3, Q5T2W1
T11 sequence (Q5T2W1 238-333, limits assumed, looked up): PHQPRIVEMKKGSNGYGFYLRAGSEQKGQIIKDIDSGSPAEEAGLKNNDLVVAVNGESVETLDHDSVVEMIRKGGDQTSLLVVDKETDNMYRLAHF

T12: SNTB1, Q13884
T12 sequence (Q13884 107-205, limits assumed, looked up): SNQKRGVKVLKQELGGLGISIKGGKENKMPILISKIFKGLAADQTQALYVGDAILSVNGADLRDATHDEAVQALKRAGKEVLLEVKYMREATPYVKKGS

B1: DENND5A, Q6IQ26 (peptide)
chain: ETSLVKGIDI
B2: MCM7, P33993 (peptide)
chain: NASRTRITFV
B3: EFNB3, Q15768 (peptide)
chain: QSPPNIYYKV
B4: SSTR5, P35346 (peptide)
chain: ANGLMQTSKL

Biological target: T1, APBA1_1, Q02410
Assay: holdup assay
Parameters: key: below the threshold = too weak to quantify, mostly under pKd 3.1 to 4
Details: plain residues with an end cap or a label only (N-terminal biotin on a linker: ado-ado)

| pKd | Binder |
| --- | --- |
| below the threshold | B1 |
| below the threshold | B2 |
| below the threshold | B3 |
| below the threshold | B4 |

Biological target: T2, APBA2_1, Q99767
Assay: holdup assay
Parameters: key: below the threshold = too weak to quantify, mostly under pKd 3.1 to 4
Details: plain residues with an end cap or a label only (N-terminal biotin on a linker: ado-ado)

| pKd | Binder |
| --- | --- |
| below the threshold | B1 |
| below the threshold | B2 |
| below the threshold | B3 |
| below the threshold | B4 |

Biological target: T3, APBA2_2, Q99767
Assay: holdup assay
Parameters: key: below the threshold = too weak to quantify, mostly under pKd 3.1 to 4
Details: plain residues with an end cap or a label only (N-terminal biotin on a linker: ado-ado)

| pKd | Binder |
| --- | --- |
| below the threshold | B1 |
| below the threshold | B2 |
| below the threshold | B3 |
| below the threshold | B4 |

Biological target: T4, ARHGEF11, O15085
Assay: holdup assay
Parameters: key: below the threshold = too weak to quantify, mostly under pKd 3.1 to 4
Details: plain residues with an end cap or a label only (N-terminal biotin on a linker: ado-ado)

| pKd | Binder |
| --- | --- |
| 3.79 | B1 |
| 4.35 | B2 |
| 4.15 | B3 |
| 3.8 | B4 |

Biological target: CASK, O14936
Assay: holdup assay
Parameters: key: below the threshold = too weak to quantify, mostly under pKd 3.1 to 4
Details: plain residues with an end cap or a label only (N-terminal biotin on a linker: ado-ado)

Sequence of CASK, O14936 (O14936 487-570): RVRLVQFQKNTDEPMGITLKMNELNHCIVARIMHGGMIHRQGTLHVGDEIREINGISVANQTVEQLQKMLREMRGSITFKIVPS

| pKd | Binder |
| --- | --- |
| below the threshold | B1 |
| below the threshold | B2 |
| below the threshold | B3 |
| below the threshold | B4 |

Biological target: T5, DFNB31_1, Q9P202
Assay: holdup assay
Parameters: key: below the threshold = too weak to quantify, mostly under pKd 3.1 to 4
Details: plain residues with an end cap or a label only (N-terminal biotin on a linker: ado-ado)

| pKd | Binder |
| --- | --- |
| below the threshold | B1 |
| below the threshold | B2 |
| 3.55 | B3 |
| 4.34 | B4 |

Biological target: DLG1_2, Q12959
Assay: holdup assay
Parameters: key: below the threshold = too weak to quantify, mostly under pKd 3.1 to 4
Details: plain residues with an end cap or a label only (N-terminal biotin on a linker: ado-ado)

Sequence of DLG1_2, Q12959 (Q12959 314-412): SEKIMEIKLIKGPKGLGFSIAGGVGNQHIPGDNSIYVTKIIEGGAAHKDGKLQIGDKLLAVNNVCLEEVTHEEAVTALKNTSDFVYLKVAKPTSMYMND

| pKd | Binder |
| --- | --- |
| below the threshold | B1 |
| 5.28 | B2 |
| below the threshold | B3 |
| below the threshold | B4 |

Biological target: DLG1_3, Q12959
Assay: holdup assay
Parameters: key: below the threshold = too weak to quantify, mostly under pKd 3.1 to 4
Details: plain residues with an end cap or a label only (N-terminal biotin on a linker: ado-ado)

Sequence of DLG1_3, Q12959 (Q12959 457-571): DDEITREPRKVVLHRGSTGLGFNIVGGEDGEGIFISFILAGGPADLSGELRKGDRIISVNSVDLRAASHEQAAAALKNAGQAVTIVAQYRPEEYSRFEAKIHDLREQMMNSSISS

| pKd | Binder |
| --- | --- |
| 3.76 | B1 |
| 4.12 | B2 |
| 3.72 | B3 |
| below the threshold | B4 |

Biological target: T6, DLG3_3, Q92796
Assay: holdup assay
Parameters: key: below the threshold = too weak to quantify, mostly under pKd 3.1 to 4
Details: plain residues with an end cap or a label only (N-terminal biotin on a linker: ado-ado)

| pKd | Binder |
| --- | --- |
| below the threshold | B1 |
| 4.47 | B2 |
| 3.56 | B3 |
| below the threshold | B4 |

Biological target: DLG4_1, P78352
Assay: holdup assay
Parameters: key: below the threshold = too weak to quantify, mostly under pKd 3.1 to 4
Details: plain residues with an end cap or a label only (N-terminal biotin on a linker: ado-ado)

Sequence of DLG4_1, P78352 (P78352 62-152): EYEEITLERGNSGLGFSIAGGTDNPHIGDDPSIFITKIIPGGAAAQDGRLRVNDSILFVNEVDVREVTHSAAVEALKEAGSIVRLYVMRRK

| pKd | Binder |
| --- | --- |
| below the threshold | B1 |
| 4.76 | B2 |
| below the threshold | B3 |
| below the threshold | B4 |

Biological target: FRMPD4, Q14CM0
Assay: holdup assay
Parameters: key: below the threshold = too weak to quantify, mostly under pKd 3.1 to 4
Details: plain residues with an end cap or a label only (N-terminal biotin on a linker: ado-ado)

Sequence of FRMPD4, Q14CM0 (Q14CM0 67-160): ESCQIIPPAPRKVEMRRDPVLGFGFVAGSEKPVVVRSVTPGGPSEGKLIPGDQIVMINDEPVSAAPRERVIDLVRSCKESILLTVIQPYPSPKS

| pKd | Binder |
| --- | --- |
| below the threshold | B1 |
| below the threshold | B2 |
| 4.01 | B3 |
| 3.69 | B4 |

Biological target: GOPC, Q9HD26
Assay: holdup assay
Parameters: key: below the threshold = too weak to quantify, mostly under pKd 3.1 to 4
Details: plain residues with an end cap or a label only (N-terminal biotin on a linker: ado-ado)

| pKd | Binder |
| --- | --- |
| below the threshold | B1 |
| 4.2 | B2 |
| 3.51 | B3 |
| 4.93 | B4 |

Biological target: GORASP2, Q9H8Y8
Assay: holdup assay
Parameters: key: below the threshold = too weak to quantify, mostly under pKd 3.1 to 4
Details: plain residues with an end cap or a label only (N-terminal biotin on a linker: ado-ado)

| pKd | Binder |
| --- | --- |
| 3.79 | B1 |
| 5.38 | B2 |
| 4.99 | B3 |
| below the threshold | B4 |

Biological target: GRID2IP_2, A4D2P6
Assay: holdup assay
Parameters: key: below the threshold = too weak to quantify, mostly under pKd 3.1 to 4
Details: plain residues with an end cap or a label only (N-terminal biotin on a linker: ado-ado)

Sequence of GRID2IP_2, A4D2P6 (A4D2P6 272-370): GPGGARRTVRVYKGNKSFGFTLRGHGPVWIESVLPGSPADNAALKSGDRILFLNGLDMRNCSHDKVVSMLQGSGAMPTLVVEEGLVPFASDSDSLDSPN

| pKd | Binder |
| --- | --- |
| below the threshold | B1 |
| 4.97 | B2 |
| below the threshold | B3 |
| 4.48 | B4 |

Biological target: T7, GRIP1_2, Q9Y3R0
Assay: holdup assay
Parameters: key: below the threshold = too weak to quantify, mostly under pKd 3.1 to 4
Details: plain residues with an end cap or a label only (N-terminal biotin on a linker: ado-ado)

| pKd | Binder |
| --- | --- |
| below the threshold | B1 |
| below the threshold | B2 |
| 3.52 | B3 |
| below the threshold | B4 |

Biological target: T8, GRIP1_5, Q9Y3R0
Assay: holdup assay
Parameters: key: below the threshold = too weak to quantify, mostly under pKd 3.1 to 4
Details: plain residues with an end cap or a label only (N-terminal biotin on a linker: ado-ado)

| pKd | Binder |
| --- | --- |
| below the threshold | B1 |
| below the threshold | B2 |
| below the threshold | B3 |
| below the threshold | B4 |

Biological target: IL16_1, Q14005
Assay: holdup assay
Parameters: key: below the threshold = too weak to quantify, mostly under pKd 3.1 to 4
Details: plain residues with an end cap or a label only (N-terminal biotin on a linker: ado-ado)

Sequence of IL16_1, Q14005 (Q14005 210-306): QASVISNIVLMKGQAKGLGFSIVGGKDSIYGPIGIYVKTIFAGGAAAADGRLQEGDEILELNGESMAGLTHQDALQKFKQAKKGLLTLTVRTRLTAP

| pKd | Binder |
| --- | --- |
| below the threshold | B1 |
| below the threshold | B2 |
| below the threshold | B3 |
| below the threshold | B4 |

Biological target: IL16_3, Q14005
Assay: holdup assay
Parameters: key: below the threshold = too weak to quantify, mostly under pKd 3.1 to 4
Details: plain residues with an end cap or a label only (N-terminal biotin on a linker: ado-ado)

Sequence of IL16_3, Q14005 (Q14005 1107-1207): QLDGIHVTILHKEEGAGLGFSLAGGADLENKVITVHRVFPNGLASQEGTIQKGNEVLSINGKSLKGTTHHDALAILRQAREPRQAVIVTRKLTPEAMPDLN

| pKd | Binder |
| --- | --- |
| below the threshold | B1 |
| below the threshold | B2 |
| below the threshold | B3 |
| below the threshold | B4 |

Biological target: LNX1_1, Q8TBB1
Assay: holdup assay
Parameters: key: below the threshold = too weak to quantify, mostly under pKd 3.1 to 4
Details: plain residues with an end cap or a label only (N-terminal biotin on a linker: ado-ado)

Sequence of LNX1_1, Q8TBB1 (Q8TBB1 261-371): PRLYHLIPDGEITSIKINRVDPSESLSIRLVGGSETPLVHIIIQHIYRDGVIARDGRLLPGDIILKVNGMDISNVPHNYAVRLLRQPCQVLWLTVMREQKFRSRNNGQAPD

| pKd | Binder |
| --- | --- |
| 3.79 | B1 |
| 4.3 | B2 |
| 3.86 | B3 |
| below the threshold | B4 |

Biological target: LNX1_2, Q8TBB1
Assay: holdup assay
Parameters: key: below the threshold = too weak to quantify, mostly under pKd 3.1 to 4
Details: plain residues with an end cap or a label only (N-terminal biotin on a linker: ado-ado)

Sequence of LNX1_2, Q8TBB1 (Q8TBB1 371-470): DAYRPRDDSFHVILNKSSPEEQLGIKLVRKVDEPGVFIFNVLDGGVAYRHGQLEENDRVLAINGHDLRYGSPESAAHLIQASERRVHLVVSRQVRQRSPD

| pKd | Binder |
| --- | --- |
| below the threshold | B1 |
| 4.06 | B2 |
| 3.74 | B3 |
| below the threshold | B4 |

Biological target: T9, MPDZ_5, O75970
Assay: holdup assay
Parameters: key: below the threshold = too weak to quantify, mostly under pKd 3.1 to 4
Details: plain residues with an end cap or a label only (N-terminal biotin on a linker: ado-ado)

| pKd | Binder |
| --- | --- |
| below the threshold | B1 |
| 4.37 | B2 |
| below the threshold | B3 |
| below the threshold | B4 |

Biological target: T10, MPP2, Q14168
Assay: holdup assay
Parameters: key: below the threshold = too weak to quantify, mostly under pKd 3.1 to 4
Details: plain residues with an end cap or a label only (N-terminal biotin on a linker: ado-ado)

| pKd | Binder |
| --- | --- |
| below the threshold | B1 |
| below the threshold | B2 |
| below the threshold | B3 |
| below the threshold | B4 |

Biological target: T11, NHERF3_3, Q5T2W1
Assay: holdup assay
Parameters: key: below the threshold = too weak to quantify, mostly under pKd 3.1 to 4
Details: plain residues with an end cap or a label only (N-terminal biotin on a linker: ado-ado)

| pKd | Binder |
| --- | --- |
| below the threshold | B1 |
| 3.53 | B2 |
| below the threshold | B3 |
| 3.81 | B4 |

Biological target: NHERF4_4, Q86UT5
Assay: holdup assay
Parameters: key: below the threshold = too weak to quantify, mostly under pKd 3.1 to 4
Details: plain residues with an end cap or a label only (N-terminal biotin on a linker: ado-ado)

Sequence of NHERF4_4, Q86UT5 (Q86UT5 464-550): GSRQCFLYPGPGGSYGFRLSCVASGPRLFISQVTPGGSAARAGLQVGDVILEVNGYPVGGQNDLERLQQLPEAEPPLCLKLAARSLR

| pKd | Binder |
| --- | --- |
| 3.87 | B1 |
| below the threshold | B2 |
| below the threshold | B3 |
| below the threshold | B4 |

Biological target: T12, SNTB1, Q13884
Assay: holdup assay
Parameters: key: below the threshold = too weak to quantify, mostly under pKd 3.1 to 4
Details: plain residues with an end cap or a label only (N-terminal biotin on a linker: ado-ado)

| pKd | Binder |
| --- | --- |
| below the threshold | B1 |
| 5.13 | B2 |
| below the threshold | B3 |
| below the threshold | B4 |

Biological target: TJP1_3, Q07157
Assay: holdup assay
Parameters: key: below the threshold = too weak to quantify, mostly under pKd 3.1 to 4
Details: plain residues with an end cap or a label only (N-terminal biotin on a linker: ado-ado)

Sequence of TJP1_3, Q07157 (Q07157 416-512): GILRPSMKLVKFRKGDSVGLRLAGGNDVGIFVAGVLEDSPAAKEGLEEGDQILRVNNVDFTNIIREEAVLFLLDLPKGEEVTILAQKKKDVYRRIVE

| pKd | Binder |
| --- | --- |
| below the threshold | B1 |
| below the threshold | B2 |
| below the threshold | B3 |
| below the threshold | B4 |
